The values below are quoted from earlier work in publication PMC4266928.

pKd: −log10 of the molar value.

The target in the series is insulin (Homo sapiens) (UniProt P01308).

As for insulin (from UniProt P01308), the pKd is 5.00.

The pKd is the Kd on a negative log10 scale, so that one unit is a factor of ten.
